These results are taken from publication PMC11239689.

The test addresses Toll-like receptor 2 (TLR2), endogenous in HT29 cells (human (endogenous in HT29)) (UniProt O60603).
UniProt O60603, sequence (O60603 21-784): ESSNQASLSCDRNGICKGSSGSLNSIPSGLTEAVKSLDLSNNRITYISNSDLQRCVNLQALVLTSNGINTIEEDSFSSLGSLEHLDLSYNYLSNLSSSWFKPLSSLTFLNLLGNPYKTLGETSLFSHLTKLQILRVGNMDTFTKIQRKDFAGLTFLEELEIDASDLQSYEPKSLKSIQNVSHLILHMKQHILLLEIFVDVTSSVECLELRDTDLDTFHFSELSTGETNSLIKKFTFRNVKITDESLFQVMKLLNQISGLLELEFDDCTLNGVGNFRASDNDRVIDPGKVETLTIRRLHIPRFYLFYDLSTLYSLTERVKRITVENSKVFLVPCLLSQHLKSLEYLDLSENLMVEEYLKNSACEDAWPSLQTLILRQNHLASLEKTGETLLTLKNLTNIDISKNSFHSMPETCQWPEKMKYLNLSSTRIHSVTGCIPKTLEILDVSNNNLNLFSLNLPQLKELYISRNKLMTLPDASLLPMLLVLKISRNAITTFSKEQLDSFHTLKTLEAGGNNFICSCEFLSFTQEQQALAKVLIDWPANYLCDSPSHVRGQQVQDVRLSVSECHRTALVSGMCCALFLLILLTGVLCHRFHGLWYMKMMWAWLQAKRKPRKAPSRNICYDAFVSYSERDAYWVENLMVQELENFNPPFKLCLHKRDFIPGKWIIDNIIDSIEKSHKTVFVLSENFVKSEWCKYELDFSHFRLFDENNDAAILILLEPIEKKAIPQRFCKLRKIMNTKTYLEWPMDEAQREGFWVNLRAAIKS

In the case of “GbpA domain 4, purified recombinant (domain or fragment)”, the IL-8 secreted by HT29 cells treated with 250 ng GbpA 4 for 8 h (sandwich ELISA) is 443 pg/mL.
